Measurements taken from the DeepSol protein solubility set.

Experiment: soluble on expression in E. coli; label from the status in PepcDB or PDB records

Row | Sequence | soluble on expression in E. coli
1 | MSTGSVDSQQSGGTLDAASKNIDHVIDQARHRHHQHRSKFKEAIDYLDQIFEDLKKECDPDDKNNNDENNKPFDPPPTFVAVKKKPTPLATSSASTTAPAAKIASASDSKKPASSSSTISVKPTVRQKTSETSKSKPLQQAPPSPVEVVIPVRKLSQGATNNQAEPTVAETIVLAKKTDKMDFTRRWLQDDLKSLAHLPPANIAPNASYYQDFDEHSLGSCSAEVAAFNTTKEKKNGSKASRKVSDSSDMIRPRPFRPQPVYPMVDGFNGPSAFEPFSSHTLPRVASNDQIPSEMKRSGSQDPYNTLRSMRSEGDGFDSARPSPSAFQQVSPFHRGSSMRSSLRSLPDHSPVRQKNSSYEVAAKDPVLSIDQLVAELELNTENTFSPADKRRSFPTSFGRPQAHQAQQHHAPSDYEKPNRFRAETRHAPTRGRAQNFVAPVAEPMTSKAPIYSQAVRPKQQQQQKSLDEVTSMLNRAVSQFGNEQRQAYQHPTAYKQLSQQSFGSVHSNNAFETINQEKINPSRVEAMHNMFERGTAPTSWKMQQKDSYEDRSQKMSPLQEVTYASLNSYSPPPPPPSHPLPQNGSHGMARNTSQNQISYHEYTPQPPTTQPPQRPPGSANSSQGGYYSSNSSGIGSNYPQNQQNQMYNNPRRSLIIDQQSISSRMPSVENDDDDGFYDNIGIYNDDRRYSRGSELETSASFRQLPPASNTSKHNRIGSFLRKIGGGSSRPPGSAASLMSLNKIANETIIKPGGLMKSNSLSNEPWKKVMLNGGASMPREANNNHKTGLGARLKNSLFGSRKRLDG | not soluble
2 | MGVITDDVTIAQQALTHYDVSDNASLRLLNLSENATYLVEDGEHQSILRVHRQDYHQPHEIESELDWLAALRTDSDVTVPTVVPARDGRRVVTVDPADSDAVPRHVVHFEMVGGAEPDEESLTLDDFQTLGRITASLHEHSQRWTRPAGFGRFSWDWEHCLGDTPRWGRWQDAEGVGASETALLTRAQDLLHRKLEEYGSGPDRYGLIHADLRLANLLVDSSTPQRTITVIDFDDCGFGWYFYDFGTAVSFIEHDPRLGEWQESWVAGYRSRRELPAADEAMLPSFVFLRRLLLLAWMGSHTHSRESATKAISYAAGSCALAERYLSSDGLRLT | not soluble
3 | MTFFPEIDIQKTKSNAKRKLREYPRWRRIANDVDTQKVTATYSFEPRQSHGVPSKPVERLALNRVSAEQELDAIEQAVSMILEPERRRILYDKYLAPYKKADKVIYTELCMSESFYYDTLDIALLAFAELYREGVLLVEEGVFS | not soluble
4 | MRLSRSSHHKTLDEYDFSFQPDLDPRKVRDLATLSFVEGRANAALLGVLVADEVGYQPLERAEARLVFQVISKRYEKGSIILASNKTFSEWGQVGPGFGDEVLATALLGRLLDHCDVISINGPGYRLRNRLKAIERENDVALEHHHHHH | not soluble
5 | MGSDKIHHHHHHMLDSLFPIKRNYLDRNGHKLQYVNEGQGEPVVMVHGNPSWSFYYRNLVTALSPNHQCIVPDHIGCGLSDKPDDAGYDYTLKNRIDDLEALLDHLEVKEKITLIVHDWGGMIGMGYAARHPERIKKIVVLNTGAFHLPEAKPFPWALWICRNTLLGTVLVRGFNAFSSIASYVGVKRAPMPKAIREAYVAPFNSWANRISTLRFVQDIPLKPGDRNYELVSEISEKLNQFNQLPMMICWGLKDFVFDKHFLDEWKRRFPEAEVHEFADCGHYILEDASDEVVAQVQQFMAR | not soluble
6 | MKVLVVGNGGREHAIAWKVAQSPLVKELYVAKGNAGIWEIAKRVDISPTDVEKLAEFAKNEGVDFTIVGPEAPLVEGIVDEFEKRGLKIFGPNKEAAKLEGSKAFAKTFMKKYGIPTARYEVFTDFEKAKEYVEKVGAPIVVKADGLAAGKGAVVCETVEKAIETLDRFLNKKIFGKSSERVVIEEFLEGEEASYIVMINGDRYVPLPTSQDHKRLLDEDKGPNTGGMGAYSPTPVINEEVEKRIREEIVERVIKGLKEEGIYYRGFLYAGLMITKEGPKVLEFNVRLGDPEAQPILMRVKNDFLETLLNFYEGKDVHIKEDERYALDVVLASRGYPEKPETGKIIHGLDYLKSMEDVVVFHAGTKKEGNFTVTSGGRVLNVCAYGKTLKEAKERAYEAIRYVCFEGMHYRKDIGDKAFKYLSE | soluble
7 | MAHHHHHHMPSPQSLTGTPRSLQHAPLPAQVVRDALPLRRDVSDLLPVEQLRVLHVLTIAGMPRPHNTHSATISCRLSSPIMSATPNAYWRTCSMRCISVPSLCLEQTLPSSQSTAWMPREAADRSSVCGRSKCAETTATLTPSDISTHSTLPHKRAVPWEREVRRTVLA | not soluble
8 | MTLRTKDGLTLYTRRWDVESPRAVICLVHGLGEHSGRYEHVARFFNENGISFAAFDLRGHGRSEGKRGHAEYQQLMDDITLFLQSLDYDCPKILYGHSMGGNLALNYILRYDPDIAGGIISAPFLALPKELPKHLFFILKLLNVVAPSIQLSNGIDPNLISRDREVVEAYVSDPLVHDKISPRFILQSLEAGKWALENADRLRKPILLIHGTADQITSYRASQEFAKRAGELCKFVSYEGFYHEPHNEPEKERVLADMLKWIEEVI | not soluble
9 | MSLSKQIVILGAGYGGLLAALNVRKYYSKSEAQVTVINQYPTHQIITELHRLAAGNVSEQAVAMPLTKLFKGKDIDLKIATVESFSVDSKEIKLAGGTTLSYDALVVALGSKTAYFGIPGLEENSMVLKSAADANKIYKHVEDRIREYAKTKNEADATIVIGGGGLTGVELVGELADIMPKLAKSHGVNPKEVKLLLVEAGPKILPVLPDHLIERATTSLEARGVTFLTGLPVTNVAGNEIDLKDGQKLVANTFVWTGGVQGNPLIGESGLEVNRGRATVDAYLQSTSHKDVFVAGDSAVVFAPDGRPYPPTAQIAWQMGELIGYNLYAALEGKAFEEFAPVNSGTLASLGRKDAVATIGASNTPLKGLPASLMKEASNVRYLSHIKGLFSLAYEGHHHHHH | soluble
10 | GPGSMHDLVADDSQDGDNEVISSEVPLNKHAGDEEATRTSTFKYKKGILINQGYEFDGSSTTCAEVPASAWGSNITGDEEATTTSYVRVYVLVSSQAALKELALPPVGSKGASGVPHATGYVPLTAATRAILGANMENCGW | not soluble
11 | MTLHELLEKPVWKMTGEELLFLAQQGSTQQEGDTQDKAPAKEERHFVYGLSGLARLFGCSLPTANRIKQSGKIDRAITQIGRKIIIDADLALELAGRKVGGRR | not soluble
12 | GAMAQVPTDPGYFSVLLDVKHFSPEEISVKVVGDHVEVHARHEERPDEHGFIAREFHRRYRLPPGVDPAAVTSALSPEGVLSIQATPASAQASLPSPPAAK | soluble
13 | MPLEASELKPTAGPLEASELKPTAGPLEASELKPTAGPLEASELKPTAGPLEASELKPTAGPLEASELKPTAGPLEASELKPTAGMIVVYVFVYAFKAVKQYFYPSDNLKVLMHKFTDMVNFTINIMIEKNLTSRNSVSNEVYHKLKEYEIPSYYYIEAINKAVALVKTYRKRLKKKQKATVPHVEKPMLSTYYGFKIVGGNIMIPIANREYESIPLNAYVRDATSMVKVHSFALSAYTLSLTIGRDVDAIECTTTVGVDRNLRNITVGNEFHHEIYDLSNIVEIKQRYRKKESHFHRNDRRIREKILSKYGKRERNRVKQIMHETSKAIVSNASTKKEMIVLENIIGINQITKKGDGKGKDYRFLLKNAFPYGMLASQVMYKASWEGLPVIELTRKETRNTSRMCSVCGSLTRIEHGRILKCDSCGLEIDRDVNACINIAFRYRTCLKRSHKGLPGEAVKQSKDVEQMAGSQISMDILEHHHHHH | not soluble
14 | MSLGITGPTFDLTAQPGRANQPDGASVYSWGYGCNPRTVPGFLPSVNPLAGQNCPGMQLPGPTLIVHQGDVVTVTLTNNLPPAAGNTSILFPGFQVCAGTLDPNTGACSGTPTGVQGLLTREAQTGKTVTYTFIATTPGTHAYYSGTQGDLQVEMGLYGALIVLPTASGSVAVPAGCRAVSSLLPDGQPDYRNAAAAYNHSMACYDREYLFQFSEIDPAIHVQAEQQAGLPCAQPAGCMIVRTEPYHPAYFMVNGRSMPDDMDTNYAPQYPSQPYNGNPHMHPGELVLLRIIGTGRWQHPFHEHGNHVRVLARDGNLLLSQGDPSKVAGPLLFTTTTTPGLAMDGIFYWTGRGLNWDVYGHKPGDGSVCIPDANGYYTQDPTAPNYYEWCADHDKPLEAHPFGDVNSGGPVTLPDPNIFSNGAWYGGSPYLGPDATIRAVGATGTTPPTGTIANPPTTEAGFAFMWHSHNEREITTNNIFPGGMMMMMLVDPQAFVINEANEGHHHHHH | not soluble
